This test deals with wild-type HCoV-229E Nsp9 (non-structural protein 9 of human coronavirus 229E) (human coronavirus 229E). Kind of test: crystal structure.

As usually defined, the stoichiometry N is a count of units in the complex or per binding partner.

Consider “wild-type HCoV-229E Nsp9 (non-structural protein 9 of human coronavirus 229E) (natural protein)”, for which the stoichiometry N stood at 2.

The values above are taken from publication PMC7094590.
